Laboratory results from PMC2942778 (Biochemistry, 2010).

Molecular target: the molecule itself
Test: AUC

B1: BlaI gene repressor (blaI gene product) of plasmid pI258 from S. aureus NRS128 (natural protein)
chain: MANKQVEISMAEWDVMNIIWGKKSVSANEIVVEIQKYKEVSDKTIRTLITRLYKKEIIKRYKSENIYFYSSNIKEDDIKMKTAKTFLNKLYGGDMKSLVLNFAKNEELNNKEIEELRDILNDISKK
- Kd: 1610 ± 20 nM
- stoichiometry N: 2
